Target: T1, GST-tagged Drosophila Su(H) (Drosophila melanogaster, UniProt P28159 1-594)
T1 construct: Suppressor of Hairless [Su(H)], Drosophila melanogaster; construct GST-Su(H) pGEX-KG of Bailey and Posakony, 1995; also called GST-Su(H); Suppressor of Hairless; source: E. coli, isolated, on Sepharose beads
Test: pull-down; in vitro; Sepharose beads bearing GST-Su(H) or only GST, His-tagged Hairless or S-CAP segments in solution; Ptep S-CAP also at 10X input
Conditions: both partners purified

T1 sequence (P28159 whole entry): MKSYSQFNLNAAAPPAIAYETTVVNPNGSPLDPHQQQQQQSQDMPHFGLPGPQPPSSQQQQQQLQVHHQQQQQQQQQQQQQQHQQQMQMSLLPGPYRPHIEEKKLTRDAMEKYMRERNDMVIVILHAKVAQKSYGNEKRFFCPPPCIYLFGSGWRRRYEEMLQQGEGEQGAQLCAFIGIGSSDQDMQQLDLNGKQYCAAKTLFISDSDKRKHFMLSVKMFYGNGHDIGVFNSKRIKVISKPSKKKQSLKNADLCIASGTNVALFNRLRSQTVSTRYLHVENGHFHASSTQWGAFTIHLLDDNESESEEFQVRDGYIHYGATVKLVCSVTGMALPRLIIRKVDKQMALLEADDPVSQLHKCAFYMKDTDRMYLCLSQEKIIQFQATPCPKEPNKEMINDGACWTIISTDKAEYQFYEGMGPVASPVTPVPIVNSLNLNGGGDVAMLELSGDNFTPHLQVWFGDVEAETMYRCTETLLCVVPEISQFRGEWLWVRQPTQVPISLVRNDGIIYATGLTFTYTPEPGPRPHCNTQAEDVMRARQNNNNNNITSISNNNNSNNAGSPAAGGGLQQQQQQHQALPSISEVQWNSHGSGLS

Binder	binding result
His-tagged Parasteatoda tepidariorum S-CAP residues 233-432, wild type (domain or fragment, 200 residues, fits 233-432; Su(H)-Co-repressor Adaptor Protein (S-CAP), house spider Parasteatoda tepidariorum, residues 233-432 with the SBD-like motif; same vector and leader as m9; also called HIS-PtepSCAP233-432 WT; Ptep s-CAP233-432 WT; source: E. coli (codon-optimized for expression in E. coli, pRSET-C), isolated) TVNTEDPPKDSINFLDHSRVTDPCSAASETSLPQDVPATSTVGSLKFFLGGRLVLKLNAQQDGGSGNKCQWVQSNDLPKHSNHNKKDKHKKKFAPYSYSSSGTQKPLKKGDDTSAVPDCDPSGIKKPRLKEYETSENSALGLLLCSSSWTPPVADGQESIDVDDTSSKTSEGYISPILSNNSRTSKIDTIKHDFASNPNT	binds
His-tagged Drosophila melanogaster Hairless residues 192-389, wild type (domain or fragment, 198 residues, fits 192-389 and L235, F237, L245, L247, W258; the printed DNA starts with linker codons R-W-I-R before the insert; also called HIS-H192-389 WT; Dmel Hairless192-389 WT; source: E. coli (codon-optimized for expression in E. coli, pRSET-C), isolated) AVVAAAAGTAKIGKGSNSGGSFDMGRTPISTHGNNSWGGYGGRLQFFKDGKFILELARSKDGDKSGWVSVTRKTFRPPSAATSATVTPTSAVTTAYPKNENSTSLSFSDDNSSIQSSPWQRDQPWKQSRPRRGISKELSLFFHRPRNSTLGRAALRTAARKRRRPHEPLTTSEDQQPIFATAIKAENGDDTLKAEAAE	binds
